# Source: the DeepSol protein solubility set
# Experiment: soluble on expression in E. coli; label from the status in PepcDB or PDB records
row,Sequence,soluble on expression in E. coli
1,MSLSKIKWWEMSRSFVLDEPETAILQIKPFPLPGLAQVPARIVLSQYRGLFYLNAYQDLDYQQRIYKSAPLPLLSPEDLRNCVSPDNPIQVSDNWPPSNTLDTGITLTPLGFDCSVPPQWQLSLRYLLIDQRDPQHPLLAISHRQDMTQMDFTPLQPISVETGQQWLQALQKFPPWFRAFDSGSGPITLNAYTPPATADSVWKQFRALHEQLRTAKDKGPGIRQVEDFFALHDYRSIAIDHSEYPGLLNDIAYWTSEAGQLNTARNWLLEVLRRDLGRMPTYLNLADLDWALFEQRPLDNIHQGRAIEGYRLYCGMRLQRQMSVPPRVLKRLGLESANPQACQGFWPLVAAADAGDEAEVRRLLASGVSGEVMAEDGRSALLHALDAPHLEIARLLLAHGAHTSGQYQWSTLAMLAMQRDLKDSPDLNQGGRLKFLLQAGVAIDEPNSRGQTPLMKLAEQERNLQGFTWLLQHPQNLDLRTVDDGETALYRAFWSNNYPAMKLLIEAGADLNLSYGRGTCGNEPMGQSLLMLVADKISPDQHSPIVSMQDTLDMFTLLLEKGADPNVGQRCEKKGRPLLLEIIARKKRDDMLKVLQGFAPPAPATAFREGHHHHHH,not soluble
2,MSLSLDQESIEHDLKLTSEEIFHSNGKYIPPMLNTLGQHLSVRKEFFQNFLTFVAKNFNYKISPELKLDLIEKFEILNCCIKFNSIIRQSDVLNDIWEKTLSNYNLTQNEHLTTKTVVINSPDVFPVIFKQFLNHVVFVLFPSQNQNFKLNVTNLINLCFYDGILEEGEKTIRYELLELDPMEVDTSKLPWFINFDYLNCINQCFFDFTFACEEEGSLDSYKEGLLKIVKILYYQFNQFKIWINTQPVKSVNANDNFININNLYDDNHLDWNHVLCKVNLKEQCIQIAEFYKDLSGLVQTLQTLDEGHHHHHH,not soluble
3,MSLSMLAVAATALATFAIAPAQAQAEKPKDKVTLMLNWYLYSEHATFFLGKEKGFYAEEGIDLGIQEGRGSAVTAQAVAAKSATFGYIDVTTMIKAAAKGAPLKSTGVLFQVSPMSVMGLSEKNIATPKDIIGKTVAVTPGDSMSQMWPLFLKVNDIRPDQVKVVSGDGQTKLNAVANGQADLLLGYVMDQAIKLQDATGKPVTPIRFADSGVNQISSGIITHKNLLTENPDLVKRFMRASTKAAEAAEKSPEAAVDAMLKAHPKAGVRDTLIVGMKQSVALYHTQETANQRPFRVAMKNVNDSLDLLEGHHHHHH,not soluble
4,MSLSNIHHLERSLRKLRLTRVGAEWHALEKRALAEGWTPSRYLLTLCNEELLWRESEKLRRYKKEARLPVAKTLSEYDFSQVPELNGAQFRQLCETTDWVDAGENVLLFGASGLGKSHLAAAIVDGVVGQGYRARFYSAGELLQELRKARAQLKLNELLLKLDRYRVIVVDDLGYVKRDSAETGVLFELIAHRYERGSLVITSNHPFSMWGSIFVDETMAVAAADRLIHHGYMFELKGESYRKKTAKAVTSATEGHHHHHH,soluble
5,MSLSNWPYPRIVAHRGGGKLAPENTLASIDVGAKYGHKMIEFDAKLSKDGEIFLLHDDNLERTSNGWGVAGELNWQDLLRVDAGSWYSKMFKGEPLPLLSQVAERCREHGMMANIEIKPTTGTGPLTGKMVALAARELWAGMTPPLLSSFEIDALEAAQQAAPELPRGLLLDEWRDDWRELTARLGCVSIHLNHKLLNKARVMQLKDAGLRILVYTVNKPQRAAELLRWGVDCICTDAIDVIGPNFTAQEGHHHHHH,soluble
6,MSLSQIAVRTFHDIRAALLARRELALLDVREEDPFAQAHPLFAANLPLSRLELEIHARVPRRDTPITVYDDGEGLAPVAAQRLHDLGYSDVALLDGGLSGWRNAGGELFRDVNVPSKAFGELVEAERHTPSLAAEEVQALLDARAEAVILDARRFDEYQTMSIPGGISVPGAELVLRVAELAPDPRTRVIVNCAGRTRSIIGTQSLLNAGIPNPVAALRNGTIGWTLAGQQLEHGQTRRFGAISQDTRKAAAQRARAVADRAGVERLDLAGLAQWQDEHDRTTYLLDVRTPEEYEAGHLPGSRSTPGGQLVQETDHVASVRGARLVLVDDDGVRANMSASWLAQMGWQVAVLDGLSEADFSERGAWSAPLPRQPRADTIDPTTLADWLGEPGTRVLDFTASANYAKRHIPGAAWVLRSQLKQALERLGTAERYVLTCGSSLLARFAVAEVQALSGKPVFLLDGGTSAWVAAGLPTEDGESLLASPRIDRYRRPYEGTDNPREAMQGYLDWEFGLVEQLGRDGTHGFFVIEGGSHHHHHH,soluble
7,MSLSQLAYEKILNLIINGKYKPGNLLKEDELANTLNISRTPVREALARLERDGIIIKSGKSYSVIPLSAEDIIQIYEIRIPLEAEASKLASIRGTEEELKKMLDIIEEIKRVKEDAEPLTLAELNGKLHRTISEASHNKFLADILENIRLKLKIVRVTLFTSFQRREEELREHSEIVTAIIERNPDKAYQLMKEHELNVLEYVKKNILPILFR,soluble
